Usually Km stands for the substrate concentration at which the rate is half of its maximum.

Substrate in data set [1]: CC(=O)SCCNC(=O)CCNC(=O)[C@H](O)C(C)(C)COP(=O)(O)OP(=O)(O)OC[C@H]1O[C@@H](n2cnc3c(N)ncnc32)[C@H](O)[C@@H]1OP(=O)(O)O
Description: purified protein. The data set is classed as biochemical, Proteiniphilum saccharofermentans. As to conditions: 1000 μM 5-thiohistidine; otherwise same.

Substrate in data set [2]: N[C@@H](Cc1[nH]cnc1S)C(=O)O
Description: purified protein. As to conditions: 500 μM acetyl-CoA, 0.2 μM enzyme; phosphate pH 8.0, 20 mM NaCl, 2 mM TCEP, 26 °C (buffer and temperature from the activity assay); pH 8.0; 26.0 °C. It is filed as biochemical, Proteiniphilum saccharofermentans.

B1: 5THNAT (Proteiniphilum saccharofermentans) (protein)
chain: MYLVSGSSLFYGWFKKNMDSIKGTVEIYDLDEYNYPKFRGQLIGLYLHAFTTGDYSQHIDRETVEVTLDDILQDGSGCMAFVGNRLVGLLAAFPLKRDPDFPADTCRDIPVGEAIYIAEVMVHADYRGRRIASKMLNTYLQEKSENYSYAVIRVWEKNMPALELYKKLGFLPVATISQQKLSANKEEFVMNKLYLAVKIIDN
notes: recombinant, produced in Escherichia coli, Ni-NTA purified (tag details not in main text)
Turning to B1, the figures for the Km in the data set “purified protein [1]” and in “purified protein [2]” were 73 µM and 58 µM, respectively.

Values taken from publication PMC12631010, “5‐Thiohistidine N‐Acetyltransferase from Proteiniphilum Saccharofermentans” (Chembiochem, 2025).
